Target: T1, human HLA-A2.1 (HLA-A*0201) class I molecule on the surface of T2 cells (human)
T1 construct: whole, on cells; The b2m chain is added because surface class I carries it
Assay: MHC stabilization and dissociation assay on T2 cells, BB7.2 staining, flow cytometry
Protocol: Briefly, T2 cells were cultured for 6 hours in serum-free IMDM (ATCC) prior to the addition of candidate peptides at a concentration of 50 μg/250×10³ cells/ml and incubated overnight at 37° C. […] Cells were then washed three times with PBS and analyzed by flow cytometry. […] The relative binding affinity of a given peptide was calculated as MFI_{(peptide)}/MFI_{(negative peptide)}.
T2 cells were incubated overnight with 50 μg/ml of each candidate peptide at 37° C. in serum-free Iscove's Modified Dulbecco's Medium (IMDM). Cells were then incubated with Brefeldin A (Sigma, St. Louis, Mo.) at 10 μg/ml for 1 hour, washed, and incubated at 37° C. for 0, 2, 4 or 6 hours in the presence of Brefeldin A (50 ng/ml). Cells were then stained with BB7.2 mAb. For each time point, peptide-induced HLA-A2.1 expression was calculated as the difference of the mean fluorescence of peptide-loaded T2 cells and mean fluorescence of negative peptide-loaded T2 cells. The rate of dissociation is reflected by the loss of A2.1 expression over time.

| binding result | Binder |
| --- | --- |
| binds | KLIFLDSRV (9-mer peptide of SIM2) [SIM2(241)] |
| binds | YQIVGLVAV (9-mer peptide of SIM2) [SIM2(205)] |
| binds | SLDLKLIFL (9-mer peptide of SIM2) [SIM2(237)] |
| binds | TLDGFVFVV (9-mer peptide of SIM2) [SIM2(87)] |
| binds | FLDSRVTEV (9-mer peptide of SIM2) [SIM2(244)] |

— patent publication US20110135643A1 (BETH ISRAEL DEACONESS MEDICAL CENTER, published 2011)
